# In patent CN108727490A (UNIV TSINGHUA; GUANGZHOU 8TH PEOPLES HOSPITAL, dated 2018):
# B1: 单克隆抗体ZK2B10 (antibody, human IgG1, lambda, V domains shown)
# VH: EVQLVQSGAEVKKPGASVKVSCKASGYTFTSGHTFPSYDINWVRQATGQGLEWMGWMNPNRGNTGYAQKFQGRVTMTRNTSINTAYMELSSLRSEDTAVYYCARVRSGTNYGSYYYYYYGMDVWGQGTTVTVSS
# VL: SYELTQPPSASGTPGQRVTISCSGSSSNIGNNYVHWYQQLPGSAPKLLIYRNNQRPSGVPDRFSGSKSGTSGSLAISGLRSEDEADYYCASWDDSLSGHWVFGGGTKVTVLG
# notes: also called ZK2B10抗体; IgG抗体
# Target: T1, E-His6融合蛋白 (寨卡病毒 (Zika virus), UniProt A0A024B7W1 292-693)
# T1 construct: also called 寨卡病毒的E蛋白; E蛋白
# Test: ELISA screen of memory B cell culture supernatants on coated E-His6 fusion protein; the antibody genes were cloned from positive wells
# T1 sequence (A0A024B7W1 292-693, tags left off): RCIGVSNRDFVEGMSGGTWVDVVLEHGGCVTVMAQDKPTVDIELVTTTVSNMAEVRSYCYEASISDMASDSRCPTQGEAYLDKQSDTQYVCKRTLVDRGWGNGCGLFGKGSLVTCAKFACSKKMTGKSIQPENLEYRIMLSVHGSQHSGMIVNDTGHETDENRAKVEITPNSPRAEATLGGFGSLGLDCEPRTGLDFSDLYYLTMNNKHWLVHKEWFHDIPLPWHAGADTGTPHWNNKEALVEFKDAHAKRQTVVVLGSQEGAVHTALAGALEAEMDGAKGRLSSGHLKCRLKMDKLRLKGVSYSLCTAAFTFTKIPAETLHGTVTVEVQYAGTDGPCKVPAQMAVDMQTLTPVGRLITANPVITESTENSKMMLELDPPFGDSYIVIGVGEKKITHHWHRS
binder,measurement,value
B1,binding result,binds
